From patent US5633227, “Secretory leukocyte protease inhibitor as an inhibitor of tryptase” (Miles, Inc., dated 1997)

Legend:
bovine trypsin [1] = target: T1, bovine trypsin (bovine, UniProt P00760); test: GPK-AMC enzyme inhibition assay, Dixon plot, bovine trypsin
Experimental: (§1) Inhibitory activity against tryptase and bovine trypsin was measured using Gly-Pro-Lys-aminomethylcoumarin as a substrate. The reaction was performed in assay buffer that consisted of 0.1M Tris (pH 8.0), 1 µg/ml heparin, 0.02% Triton X-100, with 20 mM CaCl_2 included only in the trypsin assays. The amount of coumarin produced was determined by measuring the fluorescence (ex=370 nm, em=432 nm) on a Perkin-Elmer LS-50B fluorimeter. To measure tryptase activity, 12 µl of a 1 nM solution of tryptase (tetramer) was incubated with either the N- (34 to 650 nM final) or the C-terminal (7–150 nM final) domain of SLPI in 1.0 ml of assay buffer for 5 minutes at 37° C. The reaction was started by the addition of the substrate GPK-AMC (20 or 40 µM final) and the increase in fluorescence was measured over a 2 minute period. In order to measure trypsin activity, 3.3 µl of a 10 µg/ml solution was incubated with either the N- or C- terminal domains of SLPI, and assayed using both 10 and 20 µM GPK-AMC. To determine K_i values, Dixon plots of the form 1/V vs [I] were constructed. These are shown in FIG. 8, and the results are listed in Table V. The K_i values for the inhibition of the tryptase catalyzed cleavage of GPK-AMC by the N- and C-terminal domains were determined to be 290 nM and 4.8 nM, respectively (FIG. 8).

bovine trypsin [2] = target: T1, bovine trypsin; test: GPK-AMC enzyme inhibition assay with bovine trypsin
Experimental: as §1

Ki (bovine trypsin [1]) [nM] | binding result (bovine trypsin [2]) | Binder
130 | – | C-terminal domain of SLPI (amino acids 50-107) (other) PVDTPNPTRRKPGKCPVTYGQCLMLNPPNFCEMDGQCKRDLKCCMGMCGKSCVSPVKA
> 1800 | no binding (tested: 1800 nM) | SGKSFKAGVCPPKKSAQCLRYKKPECQSDWQCPGKKRCCPDTCGIKCLD (other) [N-terminal domain of SLPI (amino acids 1-49)]
